The assay addresses T1, His×6-YY1(wt) (human, UniProt P25490 1-414).
T1 construct: Yin Yang 1 (YY1), wild type; also called Yin Yang 1; source: bacteria, recombinant, purified
The experiment in a line: SPR; Biacore T200; about 12,000 RU of His×6-YY1(wt) immobilised by amine coupling on a CM5 chip; analytes at 62.5, 125, 250, 500 and 1000 nM. To be noted: both partners purified. In general terms: Surface plasmon resonance follows binding to a sensor surface in real time, without labels.

B1: His×6-YY1(260–414) (domain or fragment, human, UniProt P25490 260-414, looked up)
chain: LPPGGIPGIDLSDPKQLAEFARMKPRKIKEDDAPRTIACPHKGCTKMFRDNSAMRKHLHTHGPRVHVCAECGKAFVESSKLKRHQLVHTGEKPFQCTFEGCGKRFSLDFNLRTHVRIHTGDRPYVCPFDGCNKKFAQSTNLKSHILTHAKAKNNQ
notes: source: bacteria, recombinant, purified
B1: the binding result was “binds”.

(Values after publication PMC8996997, “YY1 Oligomerization Is Regulated by Its OPB Domain and Competes with Its Regulation of Oncoproteins” (Cancers, 2022).)
